Results: a protein production outcome set (Wang et al. 2014)

Assay: label from the status in PepcDB records
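Note: failed if final PepcDB status was selected cloned or expressed and not failed if soluble or beyond.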

Q: For “MRRSRSSAAAKLRGQKRSGASGASAAPAASAAAALAPSATRTRRSASQAGSKSQAVEKPPSEKPRLRRSSPRAQEEGPGEPPPPELALLPPPPPPPPTPATPTSSASNLDLGEQRERWETFQKRQKLTSEGAAKLLLDTFEYQGLVKHTGGCHCGAVRFEVWASADLHIFDCNCSICKKKQNRHFIVPASRFKLLKGAEHITTYTFNTHKAQHTFCKRCGVQSFYTPRSNPGGFGIAPHCLDEGTVRSMVTEEFNGSDWEKAMKEHKTIKNMSKE”, which protein production is on record?
A: failed

Q: With “MSRADDVANLFQRFGASSDGYLETDNSLDYQESSVSSTPSVALQRATSQPSIEQPCAEQSAQNNAPAPDSITPDKTRRIAADTLAKLLAEAVQAREAEAQARNNEALAQSMGKEQLSRTPAHVIAVVSAKGGVGKSTLSAALTSLVKVPGGQTLAIDLDPQDALQHHLNASPDVAGLGGASLSGENWRALLLNGSADADTQLLAYGSLQLDERRSLERFQESDAHWLVRQIARMQLSARDVVILDVPCGDLLMLEQALNAASQVLVVLTADAACYLTLDQMQGWLEPVLAGPQPPVCHYVINQFDASRTFSRDMRDVMAKRLGGRLLGIVHKDNALAEALAYGHNAVQVPSASPGTQDLRVLSHLLITKLLTQDVEETRLS” as the sequence, how does the protein production read?
A: failed

Q: Which protein production does the source give for “MGYSGKPHHQLDGEIRESTDGKKWVIAGIPSRSPLKQINLSPGVTVTETEEQDQCPTTPTAVSVRIPRVPPCPAAPKKRKPSLKCSYVTVTRDYFSPPDLETVFIQRASY” here?
A: failed

Q: For “MSDQPRPTVIITGASSGVGLYATKALANRGWHVIMACRNLEKAEQAAKNLQIPPEAYTILHLDLSSLASVRGFVESFRALNRPLRALVCNAAVYYPLLKEPIYSVDGYEITVATNHLGHFLLINLLLEDLKNSPESDKRLVILGTVTANRKELGGKIPIPAPPDLGNLEGFEKGFKKPIAMINGKPFKSGKAYKDSKLCNMLTARELHRRFHESTGIVFNSLYPGCVADTPLFRHHFPLFQKLFPLFQKKITGGYVSQELAGERVAMVVADPEFRQSGVHWSWGLEHHHHHH”, which protein production is on record?
A: not failed

Q: For “MIDILPLLDWHHFVYFAIPAVLLLIVSALFALYQRRVWAICIAIAAACVLMFFIGGMWHSLERPPLRTMGETRLWYSFFVIIAGLIIYIRWKYRWILSFATVLSTVFMIINIAKPDIHNKTLMPALESPFFVPHVISYIFAYAMLGAALLVGGYFLFCKRKHKEVNAKVMMHTTDNLVYTGFAFLMTGLLLGAIWAKLAWGTYWNWDPKETWAAITVFSYLLYIHHRLHRPRAFAHSLVLLIVSFLFLQICWYGVNYLPSAKDSSIHTYTR”, which protein production is on record?
A: failed

Q: Which protein production does the source give for “MNYGFVKVAAAVPRVKVADCKFNSERLEGLITIAEGKGVQILTFPEMCITGYTCGDLFAQQLLLEQAEMALIQILNSTRQLDIISILGMPVVVNSTVINAAVVIQKGKILGVVPKTYLPNYKEFYEQRWFTSALQVSENSVRLCGQIVPMGNNLLFETAETTFGIEICEDLWATVPPSSSLALQGAEIIFNLSADDEGIGKHNYLCSLISQQSARCISGYVFSSSGFGESTTDVVFAGNGLIYENGYLLARSERFCMEEQLIINEIDVECIRAERRVNTTFAANKANCPGKEAVRISTEFVNSKDLNLTRTFNPHPFVPQGNELNSRCEEIFSIQIAGLAQRLLHTGAKTAVIGISGGLDSTLALLVCVKTFDKLGLSRKDILGITMPGFGTTDRTYHNAIDLMNSLGVSIREISIREACIQHFKDIGHDLNIHDVTYENSQARERTQILMDIANQTWGMVIGTGDLSELALGWATYNGDHMSMYGVNAGIPKTLVKHLVQWVAENGMDETSKATLLDIVDTPISPELEHHHHHH” here?
A: not failed

Q: For “MILIRLEPGMDLMEEMRAAFSEGVVVTGIGSLHRVRIRTADESELTVEGPLEILSLQGTISPDGVHIHIAVADSEGRVTGGHLRGDSPVRTTAEIAVIPYQGVLRRVMDRRTGYRELLVLE”, which protein production is on record?
A: failed

Q: For “MKKRLSLDRRFLPYIKKAGGVLVKKQMGAYVSLAAAMAIVGSSVVVGKLMVERIPVFLSSGLRFLIASVVLLMLLFCIEKGFPALTKKDVFVLLVQSFTGVFLFSICLLYGVQYTTGTESGILTSTTPMLIGILSFFLLREKIEKKTLIGILLAVCGVMAINLFGAGSQDGTPHALFGNMLIIAAVIGEALFTLMAKLLSPHISALAISTFVSLFGFLFFLPFALFEASSFDYSVPTVLDWSYVLYYALFVTVLAFYLWYSGVTKVPAGVSGIFTSVLPVSAVILSGVILKEPFEFVHFIGIACVIGGIFVTVIKKKQPDAYPAAEEKTL”, which protein production is on record?
A: failed

Q: With “MHMALIHSILMGAVAGMRSMTPLAAVANAARTGKLPADNGAPALLANPLASAGMLALAGGELAGDKMKTAPDRIVLPGMIARIATGVIVGTALAPREQRGIAALLGATTAVAAAYLTFNARMRAIERYGQTSTGVVEDAISVGAATLIVRDAAKR” as the sequence, how does the protein production read?
A: failed

Q: With “MVRHRGNKEERQQALRRYLRSNPFATDEELAEKFEVSVPTIRLDRLALGIPEVRERIMAMAQEARSRMRGVTAEELVGELVELQPGVMGISILEITPPMLVQPAGVARGYYLFAQAHSLALATVGAEVVLTSSARVRYRRPVYAGERVVARAMVKVVKDSTCLVSVHSRVNGEIVFKGRYIIITPDAATGGGSA” as the sequence, how does the protein production read?
A: failed

Q: Which protein production does the source give for “VISSDVIRGYVDTIILSLLIEGDSYGYEISKNIRIKTDELYVIKETTLYSAFARLEKNGYIKSYYGEETQGKRRTYYRITPEGIKYYKQKCEEWELTKKVINKFVKELESNGDN” here?
A: not failed

Q: With “QPTGTMTTDSKLTSKESALALTNSAYLKNTVFNKMTPGWGCNTILLLEYMTGKATSENSQSNYKDFQDLLVSDRSLYIEDWWQDCYAGIANCNLALQKLGEFENLDASLVNGYMAEVKFMRALYYFYLVRIFGDVPKITTVQSELGELQVSRAPVKEIYDEIIIPDLLEAEQSDLAFSDHTGRVSMGAVKALLADVYLTYAGYPLQGGKSYYAESAKRSLEVIKSNEYTLFTDYESLRLPSQNNKGEFIYQVQFSLNKRHNESVRIFLPSRSGISAYDLEYGSLIPTKEFVESFEKGDKRTEEKQYFFTNYKGHPSKFSPGAAELEFMDLNGYYIYKFFDQVAVDNTAKSDLNWSVYRYTDVLLMYAEAQVNADGTPNQQSIDIVNQIRGRAGLAPFKQTNASAFLEEVWDQRYFDLCYENKMWFDMLRTRKIRDDKSGEYVDFIGYKTNWGKVYTETQLLFPIPLSERQANPNLTQNQGY” as the sequence, how does the protein production read?
A: not failed

Q: Which protein production does the source give for “KKAKKVRFYRNGDRYFKGIVYAISPDRFRSFEALLADLTRTLSDNVNLPQGVRTIYTIDGLKKISSLDQLVEGESYVCGSIEPFKKLEYTKNVNPNWSVNVKT” here?
A: not failed

Q: With “MAWHAAEDRSLGFKETYLMQRFGAGVVIDDFELVEKLPSGGMASLWRATNPRYDFPLVLKIPFLDPGADVSVILGFEAEELILKRLSGPHVPRFAASGSLAQVPYIAMEFVVGKGLADIVGNAPLPMDEVARIGIEIATALAALHRQKVVHLDLKPENVVLANRGAVLLDFGLARHEELPDFLGAESSVPMGTAAYISPEQVLGERSDPASDLFALGCILFQLATGEEPFGRPATLAGMKRRLYHAPRSPRDINDAIPRWLEAIILKCMEVDRSQRYIEAAHILSDLRSPDQVVVAKRKPRNEGGWAAITSLFRKTDDRSLVGRASSTRTQAGPSIVLAAVDLANGTDALAGEVLNETARVLASREDSWLACVTVLRTEIIGDTPATDETGRSVYLKRLVALKDWAYPLHLPEDRISYHVLEAVSPADAILTYAEHNDVGHIVVGARASSAIRRHLGSVSTKVVAQALCSVSVVRLKAVEEQQRRPL” as the sequence, how does the protein production read?
A: failed

Q: For “MESPPMFNSVEDECRYWKERSKQYHKEWTDVKQEYDEFVEQSREMEIEMDATLDQKQSIIKDLTAKLTMFERENESLKLKLESHGIDMSNMEKQLETVKKDRDTMKVYLRQLEQKNDDLERAHRILNESIENFEKMLDQAYEKNALLELEVDEKGLLQEKLQRLMDETRDLKQELNVKSRFTPVVNGTSVPTANDTNTVNSSMNSSASLPNGIVANGELVKHDNAVATRATSVSVNALNGSLVNRNEYNQQHSLKSDGDETEDVPREWSANAAATPLLPAIHTSGAGRTALLLAGCRVVWILQFSVIHKPQIRNPIT”, which protein production is on record?
A: failed

Q: Which protein production does the source give for “MGHHHHHHSHMSNPIQAEVLKRVAEVFDQHVPFHNLLGLDIKRYDIDGVEVAINMKPELIGNIHQQILHGGVTATVLDVVGGLTAFAGLVASRDDWTIEELQQRLQTLGTIDMRVDYLRPGRGQIFTGTGSVIRAGNRVSVCRMELHNEQGTHIAFGTGTYMVG” here?
A: not failed
